# Measured values published in patent US20250241939A1, “NUCLEIC ACID-BASED DELIVERY SYSTEMS AND USES THEREOF” (Kodikaz Therapeutic Solutions, Inc., priority 2022, published 2025).
# B1: 55 (nucleic acid, listed as Homo sapiens)
# chain: GCGGTGGCTCACGCTTGTAATCCCAGCACTTTGGGAGGCCGAGGTGGGCGGATCACGAGGTCAGGAGATCAAGACCACGGTGAAACCCCATCTCTACTAAAAATATAAAAAATTAGCCGGGCGTGGTGGTGGGCGCCTGTAATCCCAGCTACTCAGAGAGGCTGAGGCAGGAGAAGGGCGTGAACCCGGGAGGCGGAGCTTGTAGTGAGCTGAGATCGCGCCACTGCACTCCAGCACCCCAGCCTGGGTGACAGAGCGAGACTCCGTCTCAAAAAAATAATAATAATAATTAAATAAATAA
# B2: 60 (nucleic acid, listed as Homo sapiens)
# chain: ATTCAGAAGACAAATCTCACATGCAAAGACACACATAGGCTCAAAATAAGTGGATGGAGGAATATTTACCAAGCAAATGGCAAGCAAAAAGAAAAAGCAGGGGTTGCAATCCTAGTATCTGATAAAACAGGCTTTAAACCAAGAAAGATCAAAAAAGACAAAGAAGGTCATTACATAATGGTAAAGGGATCAATGCAACAAGAAGAGCTAACTATCCTAAATATATACGCACCCAATACAGGAGCACCCAGATTCATAAAGTAAATTCTTAGAGACTACAAAGAGACTTATACTCCCATACAATAATAGTGGGAGATTTTAACACCTCATTGTTGATATTAGATCAATGAGACAGAAAATTAACAAGGATATTCAGGACTTGAACTCAGCACTGGACAAAGCAGATTTAATAGACATCTACAGAACTCTCTACCTCAGATCAACAGAATATACATTCTTCTCAGCACCACATAGCACTTATTCTAAAATTGACCACATAATTGGAAGTAAAACACTCCTCAACGAATGCAAAAGAATGGAAATCATAACAAACAGTCTCTCAGACCACAGTGCAATCAAATTAGAACTCAGGATTACGAAACTTACTCAAAACTGCACAACTACATGGAAACTGAACAACCTGCTCCTGAACGACTACTGGGTAAATAATGAAATGAAGGCAGAAATAAATAAGTTTTTGAAACCAATGAGAACAAAGACACAACATACCAGAATCTCTGGGACACAGCTAAAACAGTG
# B3: 58 (nucleic acid, listed as Homo sapiens)
# chain: TAGATGGAGGGGGAAAAACAGGGTGGGGAGCGGGAGGGAGGGAAGGTTTTGCAGAAAGACGGCGGTTAAAAAGTTTATGGGTAGATGGAGGGGGAAAAGAGGGTGGCAAGTGGGAGGAGGAAAGAGGGTGATAAGGGGGGGAAGTGGGGGTGAGCAGTAGGGAGAGAAGGTTTTGTGAAAAAAATGGGGAGAAAGGTTTTGGTTAGACGGGAGAAAAGAGGGTAACAAGTTGGGGAAGGAAAAAGAGGGTAGCTAGGAAGAAGACAAGGTTTTGCGAAAAGATAGCGGCCAGAAAAGAAAGACGGTGGAGAAAGGAAAGACGGTGGGTAAAAAGTGGGTAGATGGAGTGGGGAAAGAGGGT
# B4: 61 (nucleic acid, listed as Homo sapiens)
# chain: TATTTTTAAGCAAAGACTTAGAGAGAGAGAGGAAGTTAGCTATGCACATTGTGGGTGCGGTGTGGTTAGGGTGGCCCTGAGATAGGGATATGCCTGGTGTGTTTACGGAACAGCTAAGAGGCCAGGGAACTAGAGGAAATTGAGTGGGAAGGAGAAGAGTAGGAGATTAGTTTTGAAAAGCAAATGGTTTGGGAATATGGATCATGTAAGAGCACATGAGATTTTATAAGGATTTCATTTTACTCAGGGTGAAATGAAGAAGCACTAAAA
# B5: 67 (nucleic acid, listed as Homo sapiens)
# chain: CCTTAATAGTTAATCTCCTATTAATAAGTAAGTGATTCTTTAATTAAACTTTCCTCATTCAAATGGCCATATGCTTTCTGTCTCTCGACTAGATGCTGAGTGATATACCCCCCA
# modifications: listed as DNA, chemistry not fully specified
# B6: 52 (nucleic acid, listed as Homo sapiens)
# chain: TCATCTCACAGAGTTAAACCTTTCTTTTGATTGAGCAGTTTTGAAACTCTCTTTTTGTAGAATCTACAAGTGGACATTGGGAGCTCTTTGAGGCCTATGTTAGAAAAGGAAATATCTTCACATAAAACCTAGATAGAGGCAATCTGAGAAACATCTTTGTGATGTGTGCATTCATCTCACGGAGTTAAACCTTTCTTTTCGTTGAGCAGTTTTTAAACTGTCTTTTTGTAGAATGTGCAAGTGGACATTTGGAGCGCTTTTTGTCCTATGGTGGGAAAGGAAGTATCTTCACATAAAAACTAGACCGAAGAATTCTGAGAAACTTCTTTGTGACGTGTACGTTCATCTCACTGAGTTGAACCTTTCTTTTGATTGAGCAGTTTGGAAACACTCTTTTTGTAGAATCTGCAAGTAGACATTTGGAGCGCTTTTCAGCCTACGGTAGAAAAGGAAATATCTTCACATCACAAAGAGAGAGTTTCAAAACTGCTCTATCAAAAGAAAGGTTTAACCCTGTGCGATGAATGCACATATCACAAAGAAGTTTCTCAGATTGCTTCTGTCTAGATTTTATGTGAAGATATTCCTTTTTCCACCATAGGCCTCAAAGCGCTCCAAATGTCCACTTGCAGATTCTACAAAAAGAGTGCTTCCAAACTGCTCGATGAAAAAAATGGTTCAACTCTGTGAGATGAATGCACGCATCACAAAGAAGTTTCTCAGAATTTTTCTATCTAGTATTTATTTGAAGATATTTCATTTTCCACCAT
# B7: 50 (nucleic acid, listed as Homo sapiens)
# chain: CAGTCTTTCAGGACCAGAAGAGATGGATTTTAGGTTTTCCTTCCACTCAATGTATTCTATATGTACCCTAATCAACAAACATGCCTGGTTGTCACAGGTAGAAGGGGTCTCTACTCTGAATCATTCAGAGAAGAAATAATCATATTCTTTCGATGCTATCACTAACACAGGACCGTGATCCGAGACAACCAGGTTCAGTTCTTGATATGTAAAGGAATTTGGGAAAATATCATCTCTCACCACAAAATCTGTATTTTTATGTATATTTAAGCAAAATCCTGTTTTGGTCATCATTTTCTTTACCTTTCTTCTATATCCATCCTAATCTCCCTTTCAGC
# B8: 26 (nucleic acid, listed as Homo sapiens)
# chain: AATTACAACAACCCTTAATATTTGTAAAGCGCTTGATAATTCAGGGAGGGCTTTTAAAAACTTCTATCCATCTCTTCCCCCCAGCAATCCTATGAGGTAGGCAGGGCTGGAATCATTTGCTGCATTTTATCGAATAGGAAGCCATGACTCGTAGAGGTCTGGTGACTTAACTGAGGTCACCCACTGAGGACGTGGCAGAGCTGGGTCCTGAATCTGTGGCCCTCAGGCTCTTTGCCTGGCCCTGCCTCACATAGACTACGCTGCCTCT
# B9: MIRc (nucleic acid, listed as Homo sapiens)
# DNA: B8 chain
# Test system: MIA (pancreatic cancer) cell genome
# Assay: ctDNA coculture with MIA cells, whole genome sequencing: genomic insertion sites, transposons at insertion points and SNVs (pancreatic cancer)
# Assay type: cell-based, human
# Conditions: for Location: identified genomic insertion site, chromosome; for No. SNP: number of single nucleotide variants (SNVs or SNPs) identified, polynucleotides for pancreatic cancer cells; for Chr location: position on the chromosome of the identified genomic insertion site
# Experimental: The integration of ctDNAs into the host cell genome was evaluated. ctDNA was extracted from patient plasma, cultured for 24 hours with cells of a matching cancer cell type or non-matching cancer cell type, and whole genome sequencing was performed. The cell lines used were MM1s (multiple myeloma, MM) and MIA (pancreatic cancer, PC).
# The sequence data was used to reconstruct genomic contigs for each experimental condition by de novo assembly. […] Coculture contigs carrying a ctDNA insertion were identified using NucDiff analysis.
# Experiments were designed to identify the presence of transposons in ctDNA fragments. To map ctDNA genomic junctions more precisely, a PACBIO probe was ligated to multiple myeloma and pancreatic cancer ctDNA samples to label their 5′ and 3′ ends. Whole-genome sequencing of DNA from cells with ctDNA genomic integration was done using the Illumina platform. De novo assembly was performed on the sequencing output. ctDNA contigs containing PACBIO adaptor were then matched to those contigs containing inserted ctDNA sequences identified in the coculture experiments. Transposable element on ctDNA sequences at the insertion points (<100 nucleotides from transition point between cell and ctDNA) were detected and classified using RepeatMaster.
# A search was conducted for transposons that preferentially target cells of matching tumor types. The lists of transposons identified at the ctDNA insertion point in matching and mismatched coculture conditions were compared (e.g., MM ctDNA with MM cells or PC cells). Transposons were selected that were uniquely or preferentially inserted in the matching conditions.
# Whole-genome sequencing and Whole exon sequencing: ctDNA was extracted from 10 MM and 10 PC patients. DNA from CD138 (+) cells and from cell lines used in in vitro experiments (MM1s and MIA) was extracted using Blood & Cell Culture DNA Mini Kit (Quiagen, MD). DNA from […] paraffin embedded pancreatic tumors was obtained using QIAamp DNA FFPE Tissue Kit Print (Qiagen, MD).
# After extraction, ctDNA was ligated to the PACBIO adaptor ([…]) using the ABM DNA Library Prep Kit for Illumina Sequencing (Applied Biological Materials Inc. Canada). PACBio-labeled ctDNA and regular ctDNA were subjected to standard methods for library preparation and sequencing using Illumina and Agilent protocols, respectively. Applied Biological Materials Inc. prepared the libraries and performed whole-exon and -genome sequencing.
# Identification of transposable elements and its nucleotide variants: To determine the locations of transposable-like regions in contigs, sequences were analyzed and transposable elements (TEs) were identified and classified using RepeatMasker version 4.1.0 and the Dfam database (release 3.1) of repetitive DNA families was used as a reference for identifying repeats in ctDNA contig sequences that were part of qualifying structural events. For each repeat sequence identified by RepeatMasker, the overall frequency of the specific repeat (e.g., for AluSp or L1) and their parent class (e.g., SINE) was computed.
# Once the TE elements were identified, hit repeats/TE sequences, unique contigs for all samples, and insertion sequence were aligned with MAFFT software version. Mutations in TE sequences were identified by comparison of nucleotides at each position in the multiple sequence alignment with the “Biostrings” R package (version 4.1). A position was considered to contain mutation if the substitution was present in contigs of all samples.
Molecule,Location (TABLE 4),No. SNP (TABLE 4),Chr location (TABLE 4),"Gene (TABLE 4, gene at identified genomic insertion site)","blast orientation (TABLE 8, pancreatic cancer co-culture, BLAST alignment orientation)","blast chr (TABLE 8, pancreatic cancer co-culture, chromosome with the longest result for BLAST analysis of the full contig)","Transposon orientation (TABLE 8, pancreatic cancer co-culture, compared with the human reference genome)","Location relative to insertion (TABLE 8, pancreatic cancer co-culture, location of the transposon relative to the insertion on the contig)"
B1,Chr 14,1,103067410,,,,,
B2,Chr 4,1,36939485,,,,,
B3,Chr 13,1,19693028,,,,,
B4,Chr 14,1,21413450,,,,,
B5,Chr 19,1,40372997,,,,,
B6,Chr 7,55,57988111,,,,,
B7,Chr 7,3,18828526,,,,,
B8,Chr16,0,,PPAC,,,,
B9,,,,,Plus/Plus,chr16 and chr8,direct,left
